# Measured values taken from the supplement of paper PMC11316812.
# ± gives the standard deviation of the averaged measurements.
# How the values were obtained:
# MCF7 = test: percentage of EdU-negative (G0-arrested) nuclei per well, 72 h; higher = more G0 arrest; conditions: reference: sequence is the full UniProt precursor, the tested protein was the secreted form or ectodomain
# hTERT-HMEC = test: as above; conditions: reference: sequence is the full UniProt precursor, the tested protein was the secreted form or ectodomain
# [1] = protein concentration 0.0225 µM
# [2] = protein concentration 0.03125 µM
# [3] = protein concentration 0.3125 µM
# [4] = protein concentration 0.007735 µM
# [5] = protein concentration 0.07735 µM
# [6] = protein concentration 0.018845 µM
# [7] = protein concentration 0.18845 µM
# 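Also: secreted proteins added to cultured cells, EdU pulse at the end, nuclei found by Hoechst imaging, EdU status from nuclear versus surrounding ring intensity ratio, PBS as neutral control.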
sequence,measurement,setting,value
MDRGTLPLAVALLLASCSLSPTSLAETVHCDLQPVGPERGEVTYTTSQVSKGCVAQAPNAILEVHVLFLEFPTGPSQLELTLQASKQNGTWPREVLLVLSVNSSVFLHLQALGIPLHLAYNSSLVTFQEPPGVNTTELPSFPKTQILEWAAERGPITSAAELNDPQSILLRLGQAQGSLSFCMLEASQDMGRTLEWRPRTPALVRGCHLEGVAGHKEAHILRVLPGHSAGPRTVTVKVELSCAPGDLDAVLILQGPPYVSWLIDANHNMQIWTTGEYSFKIFPEKNIRGFKLPDTPQGLLGEARMLNASIVASFVELPLASIVSLHASSCGGRLQTSPAPIQTTPPKDTCSPELLMSLIQTKCADDAMTLVLKKELVAHLKCTITGLTFWDPSCEAEDRGDKFVLRSAYSSCGMQVSASMISNEAVVNILSSSSPQRKKVHCLNMDSLSFQLGLYLSPHFLQASNTIEPGQQSFVQVRVSPSVSEFLLQLDSCHLDLGPEGGTVELIQGRAAKGNCVSLLSPSPEGDPRFSFLLHFYTVPIPKTGTLSCTVALRPKTGSQDQEVHRTVFMRLNIISPDLSGCTSKGLVLPAVLGITFGAFLIGALLTAALWYIYSHTRSPSKREPVVAVAAPASSESSSTNHSIGSTQSTPCSTSSMA,percentage of EdU-negative,MCF7; [1],25.3 ± 2.4%
same,percentage of EdU-negative,MCF7; protein concentration 0.225 µM,27.3 ± 2.9%
same,percentage of EdU-negative,hTERT-HMEC; [1],4.75 ± 0.063%
same,percentage of EdU-negative,hTERT-HMEC; protein concentration 0.225 µM,5.33 ± 0.45%
MALSFSLLMAVLVLSYKSICSLGCDLPQTHSLGNRRALILLAQMGRISPFSCLKDRHDFGFPQEEFDGNQFQKAQAISVLHEMIQQTFNLFSTKDSSATWEQSLLEKFSTELNQQLNDLEACVIQEVGVEETPLMNVDSILAVKKYFQRITLYLTEKKYSPCAWEVVRAEIMRSFSLSKIFQERLRRKE,percentage of EdU-negative,MCF7; [2],46.7 ± 0.98%
same,percentage of EdU-negative,MCF7; [3],47.89 ± 0.27%
same,percentage of EdU-negative,hTERT-HMEC; [2],15.2 ± 2.2%
same,percentage of EdU-negative,hTERT-HMEC; [3],17.64 ± 0.089%
MIAFLLTSVLMIPHAGGHPLDTPHLPQELPPGLPNNINITFFSGMFKNVESVAEIFDCLGPHFTWLQAVFTNFPVLIQFVNGMKCVAGLCPRDFEDYGCTCRFEMEGLPVDESDSCCFQHRRCYEEAAEMDCLQDPAKLSTEVNCVSKKIICESKDNCEHLLCTCDKAAIECLARSSLNSSLNLLDTSFCLAQTPETTIKEDLTTLLPRVVPVEPTDTSLTALSGEEAGHDQEGVGAARATSPPGSAEIVATRVTAKIVTLVPAGIKSLGLAVSSVENDPEETTEKACDRFTFLHLGSGDNMQVMPQLGEMLFCLTSRCPEEFESYGCYCGQEGRGEPRDDLDRCCLSHHCCLEQVRRLGCLLERLPWSPVVCVDHTPKCGGQSLCEKLLCACDQTAAECMTSASFNQSLKSPSRLGCPGQPAACEDSLHPVPAAPTLGSSSEEDSEEDPPQEDLGRAKRFLRKSLGPLGIGPLHGR,percentage of EdU-negative,MCF7; [1],26.2 ± 2.5%
same,percentage of EdU-negative,MCF7; protein concentration 0.225 µM,25.7 ± 0.78%
same,percentage of EdU-negative,hTERT-HMEC; [1],5.21 ± 0.36%
same,percentage of EdU-negative,hTERT-HMEC; protein concentration 0.225 µM,5.66 ± 0.11%
MVSYWDTGVLLCALLSCLLLTGSSSGSKLKDPELSLKGTQHIMQAGQTLHLQCRGEAAHKWSLPEMVSKESERLSITKSACGRNGKQFCSTLTLNTAQANHTGFYSCKYLAVPTSKKKETESAIYIFISDTGRPFVEMYSEIPEIIHMTEGRELVIPCRVTSPNITVTLKKFPLDTLIPDGKRIIWDSRKGFIISNATYKEIGLLTCEATVNGHLYKTNYLTHRQTNTIIDVQISTPRPVKLLRGHTLVLNCTATTPLNTRVQMTWSYPDEKNKRASVRRRIDQSNSHANIFYSVLTIDKMQNKDKGLYTCRVRSGPSFKSVNTSVHIYDKAFITVKHRKQQVLETVAGKRSYRLSMKVKAFPSPEVVWLKDGLPATEKSARYLTRGYSLIIKDVTEEDAGNYTILLSIKQSNVFKNLTATLIVNVKPQIYEKAVSSFPDPALYPLGSRQILTCTAYGIPQPTIKWFWHPCNHNHSEARCDFCSNNEESFILDADSNMGNRIESITQRMAIIEGKNKMASTLVVADSRISGIYICIASNKVGTVGRNISFYITDVPNGFHVNLEKMPTEGEDLKLSCTVNKFLYRDVTWILLRTVNNRTMHYSISKQKMAITKEHSITLNLTIMNVSLQDSGTYACRARNVYTGEEILQKKEITIRDQEAPYLLRNLSDHTVAISSSTTLDCHANGVPEPQITWFKNNHKIQQEPGIILGPGSSTLFIERVTEEDEGVYHCKATNQKGSVESSAYLTVQGTSDKSNLELITLTCTCVAATLFWLLLTLFIRKMKRSSSEIKTDYLSIIMDPDEVPLDEQCERLPYDASKWEFARERLKLGKSLGRGAFGKVVQASAFGIKKSPTCRTVAVKMLKEGATASEYKALMTELKILTHIGHHLNVVNLLGACTKQGGPLMVIVEYCKYGNLSNYLKSKRDLFFLNKDAALHMEPKKEKMEPGLEQGKKPRLDSVTSSESFASSGFQEDKSLSDVEEEEDSDGFYKEPITMEDLISYSFQVARGMEFLSSRKCIHRDLAARNILLSENNVVKICDFGLARDIYKNPDYVRKGDTRLPLKWMAPESIFDKIYSTKSDVWSYGVLLWEIFSLGGSPYPGVQMDEDFCSRLREGMRMRAPEYSTPEIYQIMLDCWHRDPKERPRFAELVEKLGDLLQANVQQDGKDYIPINAILTGNSGFTYSTPAFSEDFFKESISAPKFNSGSSDDVRYVNAFKFMSLERIKTFEELLPNATSMFDDYQGDSSTLLASPMLKRFTWTDSKPKASLKIDLRVTSKSKESGLSDVSRPSFCHSSCGHVSEGKRRFTYDHAELERKIACCSPPPDYNSVVLYSTPPI,percentage of EdU-negative,MCF7; [4],26.6 ± 3%
same,percentage of EdU-negative,MCF7; [5],28.1 ± 1.6%
same,percentage of EdU-negative,hTERT-HMEC; [4],4.97 ± 0.54%
same,percentage of EdU-negative,hTERT-HMEC; [5],5.7 ± 0.039%
MRGAARAAWGRAGQPWPRPPAPGPPPPPLPLLLLLLAGLLGGAGAQYSSDRCSWKGSGLTHEAHRKEVEQVYLRCAAGAVEWMYPTGALIVNLRPNTFSPARHLTVCIRSFTDSSGANIYLEKTGELRLLVPDGDGRPGRVQCFGLEQGGLFVEATPQQDIGRRTTGFQYELVRRHRASDLHELSAPCRPCSDTEVLLAVCTSDFAVRGSIQQVTHEPERQDSAIHLRVSRLYRQKSRVFEPVPEGDGHWQGRVRTLLECGVRPGHGDFLFTGHMHFGEARLGCAPRFKDFQRMYRDAQERGLNPCEVGTD [Q641Q3],percentage of EdU-negative,MCF7; [6],26.1 ± 2.3%
same,percentage of EdU-negative,MCF7; [7],35.6 ± 1.1%
same,percentage of EdU-negative,hTERT-HMEC; [6],5.45 ± 1.1%
same,percentage of EdU-negative,hTERT-HMEC; [7],18.2 ± 6%
